These results are taken from PMC4301919, “Helical Defects in MicroRNA Influence Protein Binding by TAR RNA Binding Protein”.

Where only a bound is given, the exact number is not on record here.

Series [1] addresses T1, TRBP-ΔC (UniProt Q15633-2 9-215).
T1 sequence: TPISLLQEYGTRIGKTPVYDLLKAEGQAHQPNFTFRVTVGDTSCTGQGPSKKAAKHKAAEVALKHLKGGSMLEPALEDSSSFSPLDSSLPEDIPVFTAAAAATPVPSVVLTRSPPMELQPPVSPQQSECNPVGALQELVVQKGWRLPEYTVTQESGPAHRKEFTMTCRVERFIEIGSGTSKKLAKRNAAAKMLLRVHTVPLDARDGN
The series is described as follows: EMSA; apparent Kd; nH 5; 50 mM sodium cacodylate pH 7.0, 50 mM potassium glutamate, 5% glycerol; EMSA 0.5 pM RNA, 30 min at room temperature, gel 0.25X TBE at 10 C; CD at 10 C with 5-15 uM RNA. Particulars: protein: recombinant; label: 5'-32P top strand; duplex with 1-nt U-bulge. In general terms: A gel shift assay detects complexes by their altered migration in electrophoresis.

Series [2] concerns the target T1, TRBP-ΔC. As to the kind of experiment: EMSA; apparent Kd; nH 3.2 (1.4 in loop section); 50 mM sodium cacodylate pH 7.0, 50 mM potassium glutamate, 5% glycerol; EMSA 0.5 pM RNA, 30 min at room temperature, gel 0.25X TBE at 10 C; CD at 10 C with 5-15 uM RNA. Particulars: protein: recombinant; label: 5'-32P top strand (EMSA); blunt.
Series [3] concerns the target T1, TRBP-ΔC. As to the kind of experiment: EMSA; apparent Kd; nH 2.7; 50 mM sodium cacodylate pH 7.0, 50 mM potassium glutamate, 5% glycerol; EMSA 0.5 pM RNA, 30 min at room temperature, gel 0.25X TBE at 10 C; CD at 10 C with 5-15 uM RNA. Particulars: protein: recombinant; label: 5'-32P top strand; duplex with 1x1 A-A mismatch.
The target in series [4] is T2, TRBP-dsRBD1 (UniProt Q15633-2 9-85).
T2 sequence: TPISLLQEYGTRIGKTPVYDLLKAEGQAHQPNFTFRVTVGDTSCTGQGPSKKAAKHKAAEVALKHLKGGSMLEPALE
The series is described as follows: EMSA; apparent Kd; nH 2.6; 50 mM sodium cacodylate pH 7.0, 50 mM potassium glutamate, 5% glycerol; EMSA 0.5 pM RNA, 30 min at room temperature, gel 0.25X TBE at 10 C; CD at 10 C with 5-15 uM RNA. The following applies: protein: recombinant; label: 5'-32P top strand (EMSA); blunt.

Series [5] deals with T1, TRBP-ΔC. The series is described as follows: EMSA; apparent Kd; nH >14; 50 mM sodium cacodylate pH 7.0, 50 mM potassium glutamate, 5% glycerol; EMSA 0.5 pM RNA, 30 min at room temperature, gel 0.25X TBE at 10 C; CD at 10 C with 5-15 uM RNA. The following applies: protein: recombinant; label: 5'-32P top strand (EMSA); blunt.
Series [6] concerns the target T3, TRBP-dsRBD2 (UniProt Q15633-2 139-215).
T3 sequence: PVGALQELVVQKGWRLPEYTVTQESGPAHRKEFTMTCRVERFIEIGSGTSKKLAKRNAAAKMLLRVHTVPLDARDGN
The series is described as follows: EMSA; apparent Kd; nH 4.3; 50 mM sodium cacodylate pH 7.0, 50 mM potassium glutamate, 5% glycerol; EMSA 0.5 pM RNA, 30 min at room temperature, gel 0.25X TBE at 10 C; CD at 10 C with 5-15 uM RNA. Particulars: protein: recombinant; label: 5'-32P top strand (EMSA); blunt.

Series [7] deals with T3, TRBP-dsRBD2. As to the kind of experiment: EMSA; apparent Kd; nH >2; text says bound; 50 mM sodium cacodylate pH 7.0, 50 mM potassium glutamate, 5% glycerol; EMSA 0.5 pM RNA, 30 min at room temperature, gel 0.25X TBE at 10 C; CD at 10 C with 5-15 uM RNA. Particulars: protein: recombinant, label: 5'-32P, hairpin, 16 bp stem.
For series [8], the target named is T1, TRBP-ΔC. As to the kind of experiment: EMSA; apparent Kd; nH 2.5; 50 mM sodium cacodylate pH 7.0, 50 mM potassium glutamate, 5% glycerol; EMSA 0.5 pM RNA, 30 min at room temperature, gel 0.25X TBE at 10 C; CD at 10 C with 5-15 uM RNA. The following applies: protein: recombinant; label: 5'-32P; hairpin, 16 bp stem, U8 loop.
Series [9] addresses T2, TRBP-dsRBD1. As to the kind of experiment: EMSA; apparent Kd; nH 1.3; 50 mM sodium cacodylate pH 7.0, 50 mM potassium glutamate, 5% glycerol; EMSA 0.5 pM RNA, 30 min at room temperature, gel 0.25X TBE at 10 C; CD at 10 C with 5-15 uM RNA. Particulars: protein: recombinant, label: 5'-32P, hairpin, 16 bp stem.
Series [10] addresses T1, TRBP-ΔC. As to the kind of experiment: EMSA; apparent Kd; nH 1.9; 50 mM sodium cacodylate pH 7.0, 50 mM potassium glutamate, 5% glycerol; EMSA 0.5 pM RNA, 30 min at room temperature, gel 0.25X TBE at 10 C; CD at 10 C with 5-15 uM RNA. The following applies: protein: recombinant; label: 5'-32P top strand (EMSA); blunt.
Series [11] addresses T3, TRBP-dsRBD2. As to the kind of experiment: EMSA; apparent Kd; nH 3.1; 50 mM sodium cacodylate pH 7.0, 50 mM potassium glutamate, 5% glycerol; EMSA 0.5 pM RNA, 30 min at room temperature, gel 0.25X TBE at 10 C; CD at 10 C with 5-15 uM RNA. Particulars: protein: recombinant; label: 5'-32P top strand (EMSA); blunt.
Series [12] deals with T1, TRBP-ΔC. As to the kind of experiment: EMSA; apparent Kd; nH >12; 50 mM sodium cacodylate pH 7.0, 50 mM potassium glutamate, 5% glycerol; EMSA 0.5 pM RNA, 30 min at room temperature, gel 0.25X TBE at 10 C; CD at 10 C with 5-15 uM RNA. The following applies: protein: recombinant; label: 5'-32P top strand (EMSA); blunt.
Series [13] addresses T2, TRBP-dsRBD1. As to the kind of experiment: EMSA; apparent Kd; nH 2.9; 50 mM sodium cacodylate pH 7.0, 50 mM potassium glutamate, 5% glycerol; EMSA 0.5 pM RNA, 30 min at room temperature, gel 0.25X TBE at 10 C; CD at 10 C with 5-15 uM RNA. Particulars: protein: recombinant; label: 5'-32P top strand (EMSA); blunt.
Series [14] addresses T1, TRBP-ΔC. As to the kind of experiment: EMSA; apparent Kd; nH 1.6; 50 mM sodium cacodylate pH 7.0, 50 mM potassium glutamate, 5% glycerol; EMSA 0.5 pM RNA, 30 min at room temperature, gel 0.25X TBE at 10 C; CD at 10 C with 5-15 uM RNA. Particulars: protein: recombinant; label: 5'-32P; hairpin with 1-nt U-bulge and A-A mismatch.
The target in series [15] is T1, TRBP-ΔC. As to the kind of experiment: EMSA; apparent Kd; nH 3.1; 50 mM sodium cacodylate pH 7.0, 50 mM potassium glutamate, 5% glycerol; EMSA 0.5 pM RNA, 30 min at room temperature, gel 0.25X TBE at 10 C; CD at 10 C with 5-15 uM RNA. Particulars: protein: recombinant; label: 5'-32P; hairpin, 16 bp stem, U6 loop.
Series [16] concerns the target T2, TRBP-dsRBD1. The series is described as follows: EMSA; apparent Kd; nH 1.0; 50 mM sodium cacodylate pH 7.0, 50 mM potassium glutamate, 5% glycerol; EMSA 0.5 pM RNA, 30 min at room temperature, gel 0.25X TBE at 10 C; CD at 10 C with 5-15 uM RNA. Particulars: protein: recombinant, label: 5'-32P, hairpin, 16 bp stem.
The target of series [17] is T1, TRBP-ΔC. The series is described as follows: EMSA; apparent Kd; nH 1.1; text gives error 0.1; 50 mM sodium cacodylate pH 7.0, 50 mM potassium glutamate, 5% glycerol; EMSA 0.5 pM RNA, 30 min at room temperature, gel 0.25X TBE at 10 C; CD at 10 C with 5-15 uM RNA. Particulars: protein: recombinant; label: 5'-32P top strand; imperfect duplex with U-bulge and A-A mismatch.

Series [18] addresses T1, TRBP-ΔC. As to the kind of experiment: EMSA; apparent Kd; nH 4; 50 mM sodium cacodylate pH 7.0, 50 mM potassium glutamate, 5% glycerol; EMSA 0.5 pM RNA, 30 min at room temperature, gel 0.25X TBE at 10 C; CD at 10 C with 5-15 uM RNA. The following applies: protein: recombinant; label: 5'-32P top strand (EMSA); blunt.
For series [19], the target named is T3, TRBP-dsRBD2. The series is described as follows: EMSA; apparent Kd; nH 2.7; 50 mM sodium cacodylate pH 7.0, 50 mM potassium glutamate, 5% glycerol; EMSA 0.5 pM RNA, 30 min at room temperature, gel 0.25X TBE at 10 C; CD at 10 C with 5-15 uM RNA. Particulars: protein: recombinant.
Series [20] deals with T2, TRBP-dsRBD1. The series is described as follows: EMSA; apparent Kd; nH 1.5; 50 mM sodium cacodylate pH 7.0, 50 mM potassium glutamate, 5% glycerol; EMSA 0.5 pM RNA, 30 min at room temperature, gel 0.25X TBE at 10 C; CD at 10 C with 5-15 uM RNA. The following applies: protein: recombinant; label: 5'-32P top strand (EMSA); blunt.
The target in series [21] is T3, TRBP-dsRBD2. The series is described as follows: EMSA; apparent Kd; nH 2.4; 50 mM sodium cacodylate pH 7.0, 50 mM potassium glutamate, 5% glycerol; EMSA 0.5 pM RNA, 30 min at room temperature, gel 0.25X TBE at 10 C; CD at 10 C with 5-15 uM RNA. The following applies: protein: recombinant; label: 5'-32P; hairpin, 16 bp stem, UUCG loop.
Series [22] addresses T1, TRBP-ΔC. The series is described as follows: EMSA; apparent Kd; nH 1.1; 50 mM sodium cacodylate pH 7.0, 50 mM potassium glutamate, 5% glycerol; EMSA 0.5 pM RNA, 30 min at room temperature, gel 0.25X TBE at 10 C; CD at 10 C with 5-15 uM RNA. Particulars: protein: recombinant; label: 5'-32P; hairpin, 16 bp stem, UUCG loop.
Series [23] deals with T1, TRBP-ΔC. As to the kind of experiment: EMSA; apparent Kd; nH 4.1; 50 mM sodium cacodylate pH 7.0, 50 mM potassium glutamate, 5% glycerol; EMSA 0.5 pM RNA, 30 min at room temperature, gel 0.25X TBE at 10 C; CD at 10 C with 5-15 uM RNA. The following applies: protein: recombinant; label: 5'-32P; hairpin, 16 bp stem, U4 loop.

B1: U-bulge (dsRNA)
RNA 1: GGUCAGCACGUAAAUAUUGUCC
RNA 2: GGACAGUAUUUACUGUGCUGAUC
In the case of B1, in [1], the Kd was 300 ± 30 nM.

B2: ds16 (dsRNA)
RNA 1: GUCAGCAGUGCCUUAG
RNA 2: CUAAGGCACUGCUGAC
Consider B2, for which the Kd in series [2] worked out at 800 ± 70 nM.

B3: A-mismatch (dsRNA)
RNA 1: GGUCAGCACGUAAAUAUUGUCC
RNA 2: GGACAGUAUUAACGUGCUGUAC
B3: in [3], the Kd was 1780 ± 80 nM.

B4: ds44 (dsRNA)
RNA 1: GGUCAGCAGUGCCUUAGCAGCACGUAAAUAUUGGCGUUAAGACC
RNA 2: GGUCUUAACGCCAAUAUUUACGUGCUGCUAAGGCACUGCUGACC
B4: the results for the Kd in [4], in series [5] and in series [6] were 800 ± 50 nM, 60 ± 10 nM and 800 ± 60 nM, respectively.

For GUCAGCAGUGCCUUAGUUUUUUUUCUAAGGCACUGCUGAC (structured_RNA) [ds16-octa-U], the Kd was greater than 6000 nM in series [7] (U8 loop), 410 ± 50 nM in series [8] and 8000 ± 3000 nM in series [9] (U8 loop).

B5: ds12 (dsRNA)
RNA 1: GUCAGCAGUGCC
RNA 2: GGCACUGCUGAC
Consider B5, for which the Kd in series [10] worked out at 2000 ± 300 nM.

B6: ds33 (dsRNA)
RNA 1: GGUCAGCAGUGCCUUAGCAGCACGUAAAUAUGG
RNA 2: CCAUAUUUACGUGCUGCUAAGGCACUGCUGACC
As for B6, the Kd is 1000 ± 80 nM in series [11], 200 ± 20 nM in [12] and 900 ± 300 nM in [13].

B7: pre-mir-16-1 (structured_RNA)
RNA: UAGCAGCACGUAAAUAUUGGCGUUAAGAUUCUAAAAUUAUCUCCAGUAUUAACUGUGCUGCUGAA
With B7, the Kd in series [14] stood at 610 ± 20 nM.

As for GUCAGCAGUGCCUUAGUUUUUUCUAAGGCACUGCUGAC (structured_RNA) [ds16-hexa-U], the Kd was 610 ± 50 nM in series [15], greater than 4000 nM in series [7] (U6 loop) and 10000 ± 3000 nM in series [16] (U6 loop).

B8: miR-16-1/miR-16-1* (dsRNA)
RNA 1: UAGCAGCACGUAAAUAUUGGCG
RNA 2: CCAGUAUUAACUGUGCUGCUGAA
In the case of B8, the Kd in series [17] came to 1100 ± 10 nM.

B9: ds22 (dsRNA)
RNA 1: GUCAGCAGUGCCUUAGCAGCAC
RNA 2: GUGCUGCUAAGGCACUGCUGAC
As to B9, the Kd was 600 ± 50 nM in [18]; 1700 ± 100 nM in [19] (label: 5'-32P top strand (EMSA), blunt); 3500 ± 200 nM in [20].

GUCAGCAGUGCCUUAGUUCGCUAAGGCACUGCUGAC (structured_RNA) [ds16-tetra-stable]: the results for the Kd in series [21], in series [22] and in series [9] (UUCG loop) were 5000 ± 700 nM, 500 ± 50 nM and 9000 ± 1000 nM, respectively.

On to GUCAGCAGUGCCUUAGUUUUCUAAGGCACUGCUGAC (structured_RNA) [ds16-tetra-U], for which the Kd in series [23] is 700 ± 50 nM; in series [19] (label: 5'-32P, hairpin, 16 bp stem, U4 loop) it was 4000 ± 900 nM; in series [16] (U4 loop), 7000 ± 900 nM.
